Test: yeast display, Sf9 membrane polyspecificity reagent, FACS + sequencing; frameworks hold sequencing errors
Procedure, shortened: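 Polyreactivity labels are assigned by the sorting gate from which each nanobody was recovered. The gates were low and high (top ~1%), set on anti-HA fluorescence for expression and streptavidin fluorescence for reagent binding. Before sorting, galactose-induced (36–48 hours) yeast display cells were stained for 1 hour at 4 °C with 10% biotinylated, detergent-solubilized Sf9 membrane reagent.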

Row | Sequence | polyreactivity (PSR sort gate)
1 | QVQLVESGGGLVQAGGSLRLSCAASGSIFYSYAMGWYRQAPGKERELVAAISSGGRTKYADSVKGRFTISRDNAKNTVYLQMNSLKPEDTAVYYCAASDRYGGRDYWGQGTQVTVSS | high polyreactivity
2 | QVQLVESGGGLVQAGGSLRLSCAASGRILYPYAMGWYRQAPGTERELVAAITFRGGNTYYADSVKGRFTISRDNAKNTVYLQMNSLKPEDTAVYYCAKRGGYWHKFDYWGQGTQVTVSS | high polyreactivity
3 | QVQLVESGGGLVQAGGSLRLSCAASGRTFVRNAMGWYRQAPGKERELVAAISRGGRTNYADSVKGRFTISRDNAKNTVYLQMNSLKPEDTPVYYCATGAGYYSDYDYWGQVTQVTVSS | high polyreactivity
4 | QVQHVESGGGLVQAGGSLRLSCAASGRIFYRNAMGWYRQAPGKERELVASITSAGRTYYADSVKGRFTISRDNAKNTVYLQMNSLKPEDTAVYYCAVRVAVLLNLYGYWGQGTQVTVSS | low polyreactivity
5 | QVQLVESGGGLVQAGGSLRLICAASGNTFGYNAMVWYRQAPGKERELVASITLSGGSTYYADSVKGRFTISRDTAKNTVYLQMFCLKPEDTAVYYCNADTFQWWDIADVYVIVKYGYWGQGTQVTVSS | low polyreactivity
6 | QVQLVESGGGLVQAGGSLRLSCAASGIIFTTYVMGWYRHAPGTESELVAAISRGGRTYYADSVKGRFTLSRDNAKHTVYLQMNSLKPEDTAVYYCARVAYKGYGEDDYWGQGTQVTVSS | high polyreactivity
7 | QVQLVDSGGGLVQAGGSLRLSCGASGLIFKYNVMGWYRQAPGKERELVAAITWGGTRTYYADSVKGRFTISRDTAKNTVYLQMNSLKPEDTAVYYCAVRSARIERNYWGQGTQVTVSS | low polyreactivity
8 | QVQLVESGGGLVQAGGSLRLSCAASGFTFNCNAMGWYRQAPGKERELVAAIRSSGGSTYYADSVKGRFTISRDNAKYTVYLQMNSLKPEDTAVYYCAARRSNLYYGGTRYWYYYWGQGTQVTVSS | high polyreactivity
9 | QVQLVESGGGLVQAGGSLRLSCAASGDIYDAYAMGWYRQAPGKERELVAAISRSGGSTYYSDSVKGRFTISRDNAKNTVYLLMNSLKPEDTAVYYCATRFSRRYVRYDYWGQGTQVTVSS | high polyreactivity
10 | QVQLVESGGGLVQAGGSLRLSCAASGLTFTTYAMGWYRQAPGKERELVAAISRRGSRTYYADSVKGRFTISRDNAKNTVYLQMNSLKPEDTAVYYCARRAGSYPYGYTGYDYWGQGTQVTVSS | high polyreactivity
11 | QVQLVESGGGLVQAGGSLRLSCAASGSTFDYNAMVWYRQAPGKESDLVVAITWGGDSTYADSVKGRFTISRDNAKNTVYLQMNSLKPEDTAVYYCAAEQDPWTSRYVFFASRYDYWGQGTQVTVSS | low polyreactivity
12 | QVQLVESGGGLVQAGGSLRLSCAASGLTILDNAMGWYRQAPGKERELVATISGGGSTYYADSVKGRFTISRDNAKNTVYLQMNSLKPEDTAVYYWNAAYVGGPWWYRYTYNYWGQGTQVTVSS | low polyreactivity
13 | QVQLLESGGGLVQAGGSLRLSCAASGIIFRVYAMGWYRQAPGKERELVATITWSGGSTFYADSVKGRFTISRDNAKNTVYLQMNSLKPEDTAVYYCAKRGYVRSGLGRPYADDYWGQGTQVTVSS | low polyreactivity
14 | QVQLVESVGGLVQAGGSLRLSCAASGIIFSCYAMGWYRQAPGKERELVAAISSSGGTTFYADSVKGRFTISRDNAKNTVYLQMNSLKPVDTAVYYCAVVGPPYYTWRVWRPAYDYWGQGTQVTVSS | high polyreactivity
15 | QVQLVESGGGLVQAGGSLRLSCAASGSIFVRYTMGWYRQAPGKETELVAAISWGGGSTYYADSVKGRFTISRDNAKNSVYLQMNSLKPEDTAVYYCNKRYIQLYDYWGQGTKVTVSS | low polyreactivity
16 | QVQLVESGGGLVQAGGSLRLSCAASAITVKRDVMGWYRQAPGKERELVAAISRTGGSTYYADSVKGRFTISRDNAKNTVYLQMNSLKPEDTAVYYCAAATCPGIYDYWGQGTQVTVSS | high polyreactivity
17 | QGQLVESGGGLVQAGGSLRLSCAASGSIFDTYAMGWYRQAPGKERELVAAITRRAGSTYYADSVKGRFTISRDHAKNTLYFQMNSLKPEETSVYYCAAGYDRYPGGIDEYWGQGTQVTVSS | low polyreactivity
18 | QVQLVESGGGLVQAGGSLRLSCAASGIIFYENAMGWYRQAPGKERELVAAIDGDDGGTDYADSVKGRFTISRDNAKNTVYLQMNSLKPEDTAVYYCAADFGAETGYYYWGQGTQVTVSS | low polyreactivity
19 | QVHLVESGGGLVQAGGSLRLSCAASGFTYYKYAMGWYRQAPGKEREFVDAITPSGGSTYYADSVKGRFTISRDNAKNTVYLQMNSLKPEDTAVYYCAAYYGTSRWAKMCYWGQGTQVTVSS | high polyreactivity
20 | QVQLVESGGGLVQAGGSLRLSCAASGSTFYSNAMGWYRQAPGKERELVATISQRGGRTYYADSVKGRFTISRDNAKNTVYLQMNSLKPEDTAVYYCAKAATSWYGRYGYDYWGQGTQVTVSS | low polyreactivity
21 | QVQLVESGGGLVQARGSLRLSCAASGTIFASNAMGWLRKAPGKVRELVAAINSGGNTYADSVKGRFTITRDNAKNTVYVHMNSLKPEDTAVYYCAVVWNWCSGLSPGYPEFDYWGQGTQVTVSA | low polyreactivity
22 | QVQLVQSGGGLVQAGGSLRLSCAASGRTFGTYAMGWYRQAPGKEREFVAVITNRGGRTYYADSVKGRFTISRDNAKNTVYLQMNSLKPEDTAVYYCTAVGRGWAFDYWGQGTQVTVSS | high polyreactivity

Row | Sequence | polyreactivity (PSR sort gate)
23 | QVQLVESGGGLVQAGGRLRLSCAASGRIFPWYAMGWSRPAPGKERELVAAISWSGGRTYYADSVKGRFTISRDNAKNTVYLQMNSLKPEDTAVDYCNADKWRYPLSGWWKRYDYWGQGTQVTVSS | high polyreactivity
24 | QVQLVESGGGLVQAGGSLRLSCAPSGSTFEHYTMGWYRQAPGKERELVAAISRRGGRTYYADSVKGRFTISRDNAKNTVYLQMNSLKPEDTAVYYCNAPVYTRKSIDYDYCGQGTQVTVSS | high polyreactivity
25 | QVQLVESGGGLVQAGGSLRLSCAASGNTFYGYAIGWYRQAPGKERELVASITLSGDSTYYADSVKGRFTISRDNAKNTVYLQMNSLKPEDTAVYYCAGVYTYPLGYYHYTYDYWGQGTQVTVSS | low polyreactivity
26 | QVQLVESGGGLVQAGGSLRLSCAASGRIFKYYSMGWYRQAPWKERELVAAITRGGSTNYADSVKGRFTISRDNEKNTVYLQMNSLKPEDTAVYYCAVDTVRNHRMDYWGQGTQVTVSS | low polyreactivity
27 | QVQLVESGGGLVQAGGSLRLSCAASGINYTFYAMGWYRQAPGKERELVAAISYSSGSTYADSVKGRFTISRDNAKNTVYLQMNSLKPEDTAVYYCAVDLFPGHSYTYDYWGQGTQVTVSS | low polyreactivity
28 | QVQLVESGGGLVQAGGSLRLTCAASGSTFWDNTMGWYRQAPGKDRELVAGITGGGNTKYADSVKGRFTISRDNAKNTVYLQMNSLKPEDTAVYYCAAERLRGYRGVRGYYGYYYWGQGTQVTVSS | high polyreactivity
29 | QVQLEESGGGLVQAGGSLRLSCAGSGRIFAYYPMGWYRQAPGKERELVAAISRSGVSTYYADSVKGRFTISRDNAKNTVYLQMNSLKPEDTAVYYCAATYWRRGGYRMEYWGQGTQVTVSS | low polyreactivity
30 | QVQLVESGGGLVQAGGSLRLSCAASGRTFKRYAMGWYRQAPGKERELVAAITWSGGNTYYADSVKGRFTISRDNAKNTVYLQINSLKPEDTAVYYCAAKGAGRRYDSWGQGTQVTVSS | high polyreactivity
31 | QVQLVESGGGLVQAGGSLRLSCAASGSTFPYYAMGWYRQAPGKERELVARISSGSSTNYADSVKGRFTISRDNAKNTVYLQMNSLKPEDTAVYYCAARYTARRQSYGYWGQGTQVTVSS | high polyreactivity
32 | QVHLVESGGGLLQAGGSLRLSCAASGRTFGHNAMGWNRQAPGKERELVAAISSGGNTYYADSVKGRFTISRDNAKNTVYLQMNSLKPEDTAVYYCAAVTVIGGEYDYWGQGTQVTVSS | low polyreactivity
33 | QDQLVESGGGLVQAGGSLRLSCAASGRIFKYKAMGRYRQAPGKERELVAAIRRSGGSTYYADSVKGRFTISRDYAKNTVYLQMNSLKPEDTAVYFCNRLYGPGFKSVYGYDYWGQGTQVTVSS | high polyreactivity
34 | QDQLVDSGGGLVQAGGSLRLSCAASGRTFYTYAMGWYRQAPGKEREFVARISKRGGGTYYADSVKGRFTISRENAKNTVDLQMNSLIPEDTAVYYCNAGVPSAMDYWGQGTQLTVSS | high polyreactivity
35 | QVRLVESGGGLGQAGGSLRLSCAASGPIFDTNAMGWYRQAPGKERELVAAISYIGGGTYYADSVKGRFTISRDNAKNTVYLQMNSLKPEDTAVYYCAAEQIYVFFGDWMEYWGQGTQVTVSS | low polyreactivity
36 | QVHLVESGGGLVQAGGSLRLSCAATGSIFRPYAMGWYRQAPGKERELVATITWRGGTTYYADSVKGRFTISRDNAKNTVILQMISLKPEDSAVYYCAAYVPFLTSAYDYWGHGTQVTVSS | low polyreactivity
37 | QVQLVESGGGLVQAGGSLRLSCAASGRIFYGYAMGWYRQAPGNERELVAAISSSGGSTYYADSVKGRFTISRDNAKYTVYLQMNSLKPDDTAVYYCNAQLYRPGYWYDYWGQGTQVTVSS | high polyreactivity
38 | QVQLVDSGGGLVQAGGSLRLSCAASGYTFRYYAMGWYRQEPGKERELVAAITRSGTTYYADSVKGRFTISRDNAKNTVYIQMNSLKTDDTAVYYCNTRVTGNRLGYYYWGQGTQVTVSS | high polyreactivity
39 | QVQLVESGGGLVQAGGSLRLSCAASGSTFYPYSMGWYRQAPGKERELSTYADSVKGRFTISRDNAKNSVYLQMNSLKPEDTAVYYCAALHWRWYDYWGQGTQVTVSS | low polyreactivity
40 | QVQLVESGGGLVQAGGSLRLSCAASGRTFVPYAMGWYRQAPGKEREFVAVITWGGGSTYYADSVKGRFTISRDNAKNTVYLQMNSLKPEDTAVYYCAARNRRATGLGSRYGYWGQGTQVTVSS | high polyreactivity
41 | QVQLVESGGGLVQAGGSLRLSCAASGSTFSYYTMPWYRQAPGKERELVAAISRSGANTHYADSVKGRFTISRDNAKITVYLQMNSMKPEDTAVYYCAKVHSGRHYDYWGQGTQVTVSS | high polyreactivity
42 | QVQLVESGGGLVQAGGSLRLSCASSGSTFGINAMGGYREAPGKERELVAAITFISGSTNYADSVKGRFTISRDKAKNTVNLQMNCLKPEDTAVYYCAADSVYYAGYDVDYWGQGTQVTVSS | low polyreactivity
43 | QVQLVESGGGLVQAGGSLRLSCAASGSIFYFNVMGWYRQAPGKERELVATITWRDASTNYADSVKARFTISRDNAKNTVYLQMNSLKPEDTAVYYCNADSDWGYFDYDYYYWGQGTEVTVSS | low polyreactivity

— the nanobody polyreactivity screen of Harvey et al. (2022)
